Reference: PMC6370319 (Cell reports, 2019)

T1: OGT-FLAG (human, UniProt O15294-3 1-1036)
T1 sequence: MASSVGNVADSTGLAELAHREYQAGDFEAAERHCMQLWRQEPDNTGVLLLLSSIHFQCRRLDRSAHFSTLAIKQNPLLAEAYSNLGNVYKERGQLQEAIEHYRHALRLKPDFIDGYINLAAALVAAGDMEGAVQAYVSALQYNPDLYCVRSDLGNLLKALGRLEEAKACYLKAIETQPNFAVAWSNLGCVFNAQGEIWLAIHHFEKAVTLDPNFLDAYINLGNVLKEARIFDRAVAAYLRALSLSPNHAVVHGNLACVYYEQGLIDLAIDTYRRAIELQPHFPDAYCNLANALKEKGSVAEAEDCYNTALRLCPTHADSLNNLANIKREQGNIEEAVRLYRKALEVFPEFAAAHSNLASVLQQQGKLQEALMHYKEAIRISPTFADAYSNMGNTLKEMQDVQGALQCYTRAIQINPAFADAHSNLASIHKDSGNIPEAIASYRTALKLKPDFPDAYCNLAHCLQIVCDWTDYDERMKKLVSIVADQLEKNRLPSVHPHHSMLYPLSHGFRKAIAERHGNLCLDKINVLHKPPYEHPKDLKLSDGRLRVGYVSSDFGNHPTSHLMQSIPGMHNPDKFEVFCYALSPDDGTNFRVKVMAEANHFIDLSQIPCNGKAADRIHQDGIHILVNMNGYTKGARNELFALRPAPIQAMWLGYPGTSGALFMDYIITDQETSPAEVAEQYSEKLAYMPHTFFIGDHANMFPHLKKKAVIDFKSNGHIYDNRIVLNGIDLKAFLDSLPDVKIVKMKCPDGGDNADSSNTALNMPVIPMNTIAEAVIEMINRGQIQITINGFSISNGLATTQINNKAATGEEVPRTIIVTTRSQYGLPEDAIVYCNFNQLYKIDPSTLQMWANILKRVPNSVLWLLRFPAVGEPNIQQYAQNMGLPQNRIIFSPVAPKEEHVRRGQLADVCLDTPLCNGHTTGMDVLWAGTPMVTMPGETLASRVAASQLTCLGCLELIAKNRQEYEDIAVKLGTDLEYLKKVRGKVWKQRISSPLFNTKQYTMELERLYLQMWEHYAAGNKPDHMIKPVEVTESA

B1: FNIP1-D-His6 (domain or fragment)
chain: TEWDIPRNESSDSALGDSESEDTGHDMTRQVSSYYGGEQEDWAEEDEIPFPGSKLIEVSAVQPNIANFGRSLLGGYCSSYVPDFVLQGIGSDERFRQCLMSDLSHAVQHPVLDEPIAEAVCIIADMDKWTVQVASSQRRVTDNKLGKEVLVSSLVSNLLHSTLQLYKHNLSPNFCVMHLEDRLQELYFKSKMLSEYLRGQMRVHVKELGVVLGIESSDLPLLAAVASTHSPYVAQILL
B2: FNIP1-D-His6 S939A (domain or fragment)
chain: TEWDIPRNESADSALGDSESEDTGHDMTRQVSSYYGGEQEDWAEEDEIPFPGSKLIEVSAVQPNIANFGRSLLGGYCSSYVPDFVLQGIGSDERFRQCLMSDLSHAVQHPVLDEPIAEAVCIIADMDKWTVQVASSQRRVTDNKLGKEVLVSSLVSNLLHSTLQLYKHNLSPNFCVMHLEDRLQELYFKSKMLSEYLRGQMRVHVKELGVVLGIESSDLPLLAAVASTHSPYVAQILL
B3: FNIP1-D-His6 S938A (domain or fragment)
chain: TEWDIPRNEASDSALGDSESEDTGHDMTRQVSSYYGGEQEDWAEEDEIPFPGSKLIEVSAVQPNIANFGRSLLGGYCSSYVPDFVLQGIGSDERFRQCLMSDLSHAVQHPVLDEPIAEAVCIIADMDKWTVQVASSQRRVTDNKLGKEVLVSSLVSNLLHSTLQLYKHNLSPNFCVMHLEDRLQELYFKSKMLSEYLRGQMRVHVKELGVVLGIESSDLPLLAAVASTHSPYVAQILL
B4: FNIP1-D-His6 S948A (domain or fragment)
chain: TEWDIPRNESSDSALGDSEAEDTGHDMTRQVSSYYGGEQEDWAEEDEIPFPGSKLIEVSAVQPNIANFGRSLLGGYCSSYVPDFVLQGIGSDERFRQCLMSDLSHAVQHPVLDEPIAEAVCIIADMDKWTVQVASSQRRVTDNKLGKEVLVSSLVSNLLHSTLQLYKHNLSPNFCVMHLEDRLQELYFKSKMLSEYLRGQMRVHVKELGVVLGIESSDLPLLAAVASTHSPYVAQILL
B5: FNIP1-D-His6 S941A (domain or fragment)
chain: TEWDIPRNESSDAALGDSESEDTGHDMTRQVSSYYGGEQEDWAEEDEIPFPGSKLIEVSAVQPNIANFGRSLLGGYCSSYVPDFVLQGIGSDERFRQCLMSDLSHAVQHPVLDEPIAEAVCIIADMDKWTVQVASSQRRVTDNKLGKEVLVSSLVSNLLHSTLQLYKHNLSPNFCVMHLEDRLQELYFKSKMLSEYLRGQMRVHVKELGVVLGIESSDLPLLAAVASTHSPYVAQILL
B6: FNIP1-D-His6 S946A (domain or fragment)
chain: TEWDIPRNESSDSALGDAESEDTGHDMTRQVSSYYGGEQEDWAEEDEIPFPGSKLIEVSAVQPNIANFGRSLLGGYCSSYVPDFVLQGIGSDERFRQCLMSDLSHAVQHPVLDEPIAEAVCIIADMDKWTVQVASSQRRVTDNKLGKEVLVSSLVSNLLHSTLQLYKHNLSPNFCVMHLEDRLQELYFKSKMLSEYLRGQMRVHVKELGVVLGIESSDLPLLAAVASTHSPYVAQILL

biological target: Hsp90α (UniProt P07900); assay: FNIP1-FLAG IP from yeast, Hsp90α blot; details: reference: wild type FNIP1-FLAG; sites S948

Molecule | binding against the reference
FNIP1 (from UniProt Q8TF40) S948A | weaker

biological target: T1, OGT-FLAG; assay: pull-down; details: not given

Molecule | binding result
B1 | binds
B2 | binds
B3 | binds
B4 | binds
B5 | binds
B6 | binds
